Stoichiometry N data for three substances are collected here from PMC9371898.

Common to all, as to assay: SEC
A general note: Size exclusion chromatography separates by hydrodynamic size, large species first.

The target in assay [1] is PriRep5 K591A (Staphylococcus aureus (SaPI5, strain USA300)).
In assay [2] the target is PriRep5-ΔCTD (residues 676-790 removed) (Staphylococcus aureus (SaPI5, strain USA300)).
Assay [3] deals with Rep1 Triple Mutant (R248A-Y251A-K253A) (Staphylococcus aureus (SaPI1)) (UniProt Q8GNZ1).

Substance PriRep5 K591A (natural protein) showed a stoichiometry N in assay [1] of 6.

“PriRep5-ΔCTD (residues 676-790 removed) (domain or fragment)” showed a stoichiometry N in assay [2] of 6.

In turn, “Rep1 Triple Mutant (R248A-Y251A-K253A) (from UniProt Q8GNZ1 1-66) (natural protein)” yielded a stoichiometry N in assay [3] of 6.

In general, stoichiometry N refers to a count of units in the complex or per binding partner.
